Reference: the nanobody polyreactivity screen of Harvey et al. (2022)

Assay: yeast display, Sf9 membrane polyspecificity reagent, FACS + sequencing; frameworks hold sequencing errors
Procedure, shortened: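 A synthetic nanobody library was expressed on Saccharomyces cerevisiae BJ5465 by galactose induction for 36–48 hours. The library was stained for 1 hour at 4 °C with 10% biotinylated, detergent-solubilized Sf9 membrane reagent and enriched with streptavidin microbeads before FACS. Low and high (top ~1%) gates were set on anti-HA fluorescence for expression and streptavidin fluorescence for reagent binding, and each polyreactivity label reflects the gate of origin.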

In the case of “QVQLVESGGGLVQAGGSLRLSCAASGSISFLYTMGWYRQAPGKERELVAAITGSTASTYYADSVKGCFTISRDNAKNTVYLQMNSLKPEDTAVYYCAAYWYAEGYWVSRDYWGQGTQVTVSS”, the “polyreactivity (PSR sort gate)” value is reported as “low polyreactivity”.
With “QVQLVESGGGLVQAGGSLRLSCAASGIIFSSYAMGWYRQAPGKERELVADISYTGGSTYYADSVKGRFTISRDNAKNTVYLQMNSLKPEDTAVYYSAAGVYLHYSVDYWGQGTQVTVSS” the “polyreactivity (PSR sort gate)” value was “low polyreactivity”.
In the case of “QVQLVESGGGLVQAGGSLRLSCAASGFIFRFNAMGWYRQAPGKERELVAGITWSGGSTYYADSVKGRFTISRDNAKNTVYLQMNSLKPEDTAVYYCDADNPYLGRKFDYWGQGTQVTVSS”, the “polyreactivity (PSR sort gate)” value is reported as “high polyreactivity”.
With “QVQLVESGGGLVQAGGSLRLSCAASGSTLVRNAMGWSRPAPGKERDLVAAITSSGGRTYYADSVKGRFTISRDTAKNTVYLQMNSLKPEDTAVYYCNRVSRYYLYDYWGQGTQVTVSS” the “polyreactivity (PSR sort gate)” value was “high polyreactivity”.
For “QVQLVESGGGVVQAGGSLRLSCAASGSTISPYAMGWYRPAPGKERELVAAISSGGSTSYADSVKGRFTISRDNAKNTVYLQMNSLKPEDTAVYYCHASSPGEVPVYDYDYWGQGTQVTVSS”, the “polyreactivity (PSR sort gate)” value was “low polyreactivity”.
For “QVQLVESGGGLVQAGGSLRLSCAASGITFGNYAMGWYSQAPGKERELVASFSWNVGSTYYADSVKGRFTISRDNAKNTVYLQMNSLKPEDTAVYYCARGYDRPRVATFHRFDYWGQGTQVTVSS”, the “polyreactivity (PSR sort gate)” value was “low polyreactivity”.
For “QVQLVESGGGLVQAGGSLRLSCAASGSTFVGNAMGWYRQAPGKERELVAAITSGGSTNYADSVKGRFTISRDNAKNTVYLQMNSLKPEDTAVYYCAKRVSGSPPTAGSLSDSWGQGTQVTVSS”, the “polyreactivity (PSR sort gate)” value was “high polyreactivity”.
In the case of “QVQLVESGGGLVQAGGSLRLSCAASGRIIIYKAMGWYRQAPGKERQLVAAINRSGVSTHYADSVKGRFTISRDNAKNTVYLQMNSLKPEDTAVYYCARTVYGARSYDYWGQGTQVTVSS”, the “polyreactivity (PSR sort gate)” value is reported as “low polyreactivity”.
In the case of “QVQLVESGGGLVQAGGSLRLICAASGSIFGGYAMGWYIQAPGKERELVARITNGGSTYYADSVKGRFTISRDNAKNTVYLQMNSLKPEDTAVYYCNADWYAYPYGYWGQGTQVTVST”, the “polyreactivity (PSR sort gate)” value is reported as “low polyreactivity”.
With “QVQLVESGGGLVQAGGSLRLSCAASGFIFRYYAMGWYRQAPGKERELVAAISWSGGSTYYADSVKGRFTISRDNAKNTVYLQMNSLKPEDTAVYYCNAVTTYGEYDYWGHGTQVTVSS” the “polyreactivity (PSR sort gate)” value was “high polyreactivity”.
In the case of “QVQLEESGGGLVQAGGSLSLSCAASGSIFSNYAMGWYRQAPGKERELVAAIRISGGSTKYADSVKGRFTISRDNAKNTVYLQMNSLKPEDTAVYYCAAANSKRHRRYNYWGQGTQVTVSS”, the “polyreactivity (PSR sort gate)” value is reported as “high polyreactivity”.
With “QVQLVESGGGLVQAGGSLRLSCAASGSIFNLYAMGWYRQAPGKERELVAGIRWSGGRTYYADSVKGRFTISRDNAKNTVYLQMNSLKPEDTAVYYCNAGGYLSWWNDYDYWGQGTQVTVSS” the “polyreactivity (PSR sort gate)” value was “high polyreactivity”.
In the case of “QVQLVESGGGLVQAGGSLRLSCAASGLTFSRYAMGWYRQAPGKERELVAAITWSGSSTYYADSVKGRFTISRDNAKNTVYLQMNILKQEDTAVYYCAARYGYSRGPYYRSDYWGQGTQVTVSS”, the “polyreactivity (PSR sort gate)” value is reported as “high polyreactivity”.
With “QVQLVESGGGLVQAGGSLRLSCAASGSIFFRNAMGWYRQAPGKEREFVAVINYSGGSTRYADSVKGRFTISRDNAKNTVYLQMNSLKPEDTAVYYCATRLYISKMYYWGQGTQVTVSS” the “polyreactivity (PSR sort gate)” value was “high polyreactivity”.
In the case of “QVQLVESGGGLVQAAGSLRLSCAASGRTSVRYAMGWNRQAHGKERELVAAISWSGGSTYYADSVKGRFTISRDNAKNTVYLQMNSLKPEDTAVYYCNAQHALGYYYWGQGTQVTVSS”, the “polyreactivity (PSR sort gate)” value is reported as “low polyreactivity”.
For “QVQLVESGGGLVQAGGSLRLSCAASGRTQSRYTMGWYRQAPGKERELVAAISTSGSTYYADSVKGRFTISRDNAKNTVYLQMNSLKPEDTAVYYCNAVRRYLQYATGYDYWGQGTQVTVSS”, the “polyreactivity (PSR sort gate)” value was “high polyreactivity”.
For “QVQLVESGGGLVQAGGSLRLSCAASGFTFRRYAMGWYRQAAGKERELVASNSWRGGTTYYADSVKGRFTISRDNAKNTVYLQMNSLKPDDTAVYYCARGAATPPGYYSSGQGTQVTVSS”, the “polyreactivity (PSR sort gate)” value was “low polyreactivity”.
In the case of “QVQLVESGGGLVQAGGSLRLISAASGITFDYYAIGWSRQAPGKERELVAAITNDGRTYYADSVKGRFTISRDNAKNTVYLQMNSLKPEDTAVYYCARLTFREYDYWGQGTQVTVSS”, the “polyreactivity (PSR sort gate)” value is reported as “low polyreactivity”.
In the case of “QVQLVESGGGLVQAGGSLRLTCAASGNIFFVYDMGWYRQAPGKERELVAAISWSGGSTYADSVKGRFTISRDNAKNTVYLQMNSVKPEDTAVDYCAADVAYVEYDYWGQGTQVTVSS”, the “polyreactivity (PSR sort gate)” value is reported as “low polyreactivity”.
For “QVQLVESGGGLVQAGGSLRLSCAASGSIFSSYAMGWYRQAPGKERELVAAITSGGSTYYADSVKGRFTISRDNAKNTVYLQMNSLKPEDTAVYYCAAYRSYFGYDYWGQGTQVTVSS”, the “polyreactivity (PSR sort gate)” value was “low polyreactivity”.
In the case of “QVQLVESGGGLVQAGCSLRLSCAASGSTFRKYAMGWYRQAPGKEREFVAAITWSTGTTYYADSVKGRFTISRDNAKNTVYLQMNSLKPEDTAVYYFAADSQPPHELYESIEHESWGQGTQVTVSS”, the “polyreactivity (PSR sort gate)” value is reported as “low polyreactivity”.
In the case of “QVQLVESGGGLVHAGGSLRLSCAASGFTCPYYPMGWYRQAPGKERELVDVISRSGGSTYYADSVKGRFTISRDNAKNTVYLQMNSLKPEDTAVYYCAKRYSLTGGKRTGYYWGQGTQVTVSS”, the “polyreactivity (PSR sort gate)” value is reported as “high polyreactivity”.
In the case of “QVHLVESGGGLVQAGGSLRLSCAASGRTFYRYAMGWYRQAPGKERELVAAINTGGSTYYADSVKGRFTISRDNAKTTVYLQMNSLKPEVTAVYYCAAEAASWWGYGYWGQGTKVTVSS”, the “polyreactivity (PSR sort gate)” value is reported as “high polyreactivity”.
In the case of “QVQLVESGGGLVQAGGSLRLSCAASGLTFYYYYTMGWYRQAPGKERELVAAISRSGSTNYADSVKGRFTISRDNAKNTVYLQMNSLKPEDTAVYYCARSYRSDGSRFGYWGQGTQVTVSS”, the “polyreactivity (PSR sort gate)” value is reported as “low polyreactivity”.
For “QVQLVESGGGLVQAGASLRLSCAASGRTFGGYAMGWYRQAAGKERELVAAISYSGGSTYYADSVKGRFTISRDYAKNTVYLQMNSLKPEDTAVYYCAADGFDAYYWGQGTQVTVSS”, the “polyreactivity (PSR sort gate)” value was “low polyreactivity”.
With “QVQLVESGGGLVQAGGSLRLSCAASGRSIYRNAMGWYRQAPGKERELVAAISGRGGGTYYADSVKGRFTLSRDNAKNTVYLQMNSVKPEETAVYYCAAERKNKYDYWGQGTQVTVSS” the “polyreactivity (PSR sort gate)” value was “high polyreactivity”.
In the case of “QVQLVESGGGLVQAGGSLRLSCAASGRTLVPYAMGWYRQAPGKERELVAAISNVSSTNYADSVKGRFTISRDNAKNTGYLQMNSLKPEDTAVYYCNAVGVPSEYYSWGQGTQVTVSS”, the “polyreactivity (PSR sort gate)” value is reported as “low polyreactivity”.
With “QVQLVESGGGLVQAGGSLRLICAASGLIFGKYAMGWYRQAPGKEREFVAAITRSGGSTYYADSVKGRFTISRDNAKNTVYLQMNSLKPEDTAVYYCAAYSLKYYNGYDYWGQGTQVTVSS” the “polyreactivity (PSR sort gate)” value was “high polyreactivity”.
With “QVHLVESGRGLVQAGGSLRLSCAASGSIFESYAIGWYRQAPGKERELVAAISGNSDSTYYADSVKGRFTISRDNEKNTVYLQMNSLKPEDTAVYYCAKEGGNGYDYWGQGTQVTVSS” the “polyreactivity (PSR sort gate)” value was “low polyreactivity”.
For “QVQLVESGGGLVQAGGSLRLSCAATGSTFWPYAMGWYRQAPGKERELVAAIRVIGGSTYYADSVKGRFTISRDNAKNTVYLQMNSLKPEDTAVYYCNAYRPGGARFYARYRYDYCGQGTQVTVSS”, the “polyreactivity (PSR sort gate)” value was “low polyreactivity”.
In the case of “QVQLVESGGGLVQAGGSLRLSCAASGYIFNKYVMGWYRQAPGKERELVAAISASGGSTYYADSVKGRFTISRDNAKNTVYLQMNSLKPEDTAVYYCAATLYRRMDYWGQGTEVTVSS”, the “polyreactivity (PSR sort gate)” value is reported as “high polyreactivity”.
With “QVQLVESGGGLVQAGGSLRLSCAASGSISYFNAMGWYRQAPGKERELVAAITSGGSTYYADSVKGRFTISRDNAKNTVYLQMNSLKPEDTAVYYCNAPLEWGVYAAQNWDDGYWGQGTQVTVSS” the “polyreactivity (PSR sort gate)” value was “low polyreactivity”.
With “QVQLVESGGGLVQAGGSLRLSCAASGFTFIFNAMGWYRQAPGKERELVATISWGGGSTYYADSVKGRFTISRDNAKNTVYLQMNSLKPEDTAVYYCNADGYTLWYEYDYWGQGTQVTVSS” the “polyreactivity (PSR sort gate)” value was “low polyreactivity”.
For “QVQLVESGGGLVQAGGSLRLSCAASGITFRLYAMGWYRQAPGKERELVAAITGSGGRTYYADSVKGRFTISRDNAKNTVYLQMNSLNPEDTAVFYCNVYPPYAMDYWGQGTQVTVSS”, the “polyreactivity (PSR sort gate)” value was “high polyreactivity”.
In the case of “QFQLVESGGGLVQAGRSLRLSCAASGSIFWSNAMGWYRQAPGKERELVAAITTSDGSKYYADSVKGRFRISRDNANNTVYLQMNILKPEDTAVYYCAADTYFVCYGYYYWGQGTQVTVSS”, the “polyreactivity (PSR sort gate)” value is reported as “low polyreactivity”.
In the case of “QVQLVESGGGLVQAGGSLRLSCAASGRIFVKNAMGWYIQAPGKERELVAAISASGGSTYYADSVKGRFTISRDYSKNTVYLQMNSLKPEYTAVYYCARVLRRRYLSEFDYWGQGTQVTVSS”, the “polyreactivity (PSR sort gate)” value is reported as “high polyreactivity”.
For “QVQLVESGGGLVQAGGSLRLSCAASGIIFYDYAMGWYRQAPGKERELVAAISRSGSSTYYADSVKGRFTISRDNAKNTVYLQMNSLKPEDTAVYYCASRFGDMGYWGQGTQVTVSS”, the “polyreactivity (PSR sort gate)” value was “high polyreactivity”.
For “QVQLVESGGGLVQAGGSLRLSCAASGSIFYTNAMGWYRQAPGKERELVAAIRWSGGRTYYADSVKGRFTISRDNAKNTVYLQMNSLKPEDTAVYYCNVVVRYPSAYDYWGQGTQVTVSS”, the “polyreactivity (PSR sort gate)” value was “high polyreactivity”.
For “QVQLVESGGGLVQAGGSLRLSCAASGLTFYQYALGWSRQAPGNDREWVAAITRGGTTNYADSVKGRFTISRDNAKNTVYLQMNSLKPEDTAVYYCNKGLVFDGYDYWGQGTQVTVSS”, the “polyreactivity (PSR sort gate)” value was “high polyreactivity”.
For “QVQLVESGGGLVQAGGSLRLSCAASGIIFYYYGMGWYSQAPGKERELVAAISTGGSTNYADSVKGRFTISRDNAKNTVYLQMNRLKPEDTAVYYCAVTYWWYYGYDYWGQGTQVTVSS”, the “polyreactivity (PSR sort gate)” value was “low polyreactivity”.
With “QVQLVESARGIVQAGGSLRLSSAASGFIFYSSAMGGYRQAPGYERELVAGITSGGITSYADSVKGRFTISRDNAKNTVYLQMNSLKPEYTAVYYCAAVVVYQNYNYYYWGQGTQVTVSS” the “polyreactivity (PSR sort gate)” value was “high polyreactivity”.
For “QVQLVESGGGLVQAGGSLRLSCAASGSTISINALGWSRQAPGKERELVAAITGGDTNTYYADSVKGRFTISRDTAKNTVYLLMNSLKPEDTAVYYCNARIYDYAGAGTWSYDSWGQGTQVTVSS”, the “polyreactivity (PSR sort gate)” value was “low polyreactivity”.
In the case of “QVQLVESGGGLVQAGGSLRLSCAASGSTFNGYTMGWYRQAPGKERELVAAITWSGGRTYYADSVKGRFTISRDNAKNTVYLQMNSLKPEDTAVYYCAAKLRSRYDYWGQGTQVTVSS”, the “polyreactivity (PSR sort gate)” value is reported as “high polyreactivity”.
